System: MS2 coat protein
Assay: apparent KD of MS2 coat protein; higher = weaker reporter binding
Details: Eterna round: R107
Outline: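 Apparent KD stands for the median, per design, of fits to normalised cluster binding curves. The curves came from titrating on-chip-transcribed RNA switches on Illumina sequencing clusters with SNAP-549-labelled MS2 coat protein, twofold from 0.7 or 1.5 nM to 3 µM. Buffer was 100 mM Tris-HCl pH 7.5, 80 mM KCl, 4 mM MgCl2, without or with constant ligand.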

[1] = input ligand: theophylline 20 uM
[2] = input ligand: theophylline 2 mM
[3] = input ligand: tryptophan 2.4 mM

| Sequence | apparent KD of MS2 coat protein (input ligand: arginine 13.2 mM) | apparent KD of MS2 coat protein [1] | apparent KD of MS2 coat protein [2] | apparent KD of MS2 coat protein (input ligand: none) | apparent KD of MS2 coat protein [3] |
| --- | --- | --- | --- | --- | --- |
| AAUAAACAUGAGGAUCACCCAUGUUGUUGACGAGGACCGGUACGGCCGCCACUCGACAUGAGGAUCACCCAUGUUGUCACAUGAG [Same State Tryptophan A] | 73.1 nM | 190 nM | 256 nM | – | – |
| AACAUGUGGAUCACCCAUGUAUGUUCUGAAGGAGCGCCACAUGAGGCAGGUAGGUCGCAGGUACAUGAGGAUCACCCAUGUGUCA [Exclusion Arginine A 4] | 54.5 nM | 111 nM | 193 nM | 192 nM | 158 nM |
| UGUAUGUGAUCUGAUACCAGCUAGCGGAAACGCAAAAGCUUGAGGAUCACCCAAGUGGAAAGCCCUUGGCAGCAGAUCGCAUACU [Denovo 1 #StaticStem #AlternativeMS2] | 17.5 nM | 14.7 nM | 9.89 nM | 15.1 nM | 17.4 nM |
| UGCCGAGACGUGGAUUACCCGUGUACCGAAGGAGCGCCCGAAAGGGCAGGUAGGUCGCGGAGGACAUGAGGAUCACCCAUGUUGA | 32.8 nM | 43.7 nM | 96.8 nM | 73.7 nM | 54.8 nM |
| AUCGUACCUGAUGAUACCAGCAAUUGCUCGUAACAUGAGGAUCACCCAUGUGACCAGUGAUGCCCUUGGCAGCAUGGUCGGUGCA [Same State - Theophylline B (Freestyle 21)] | 59.5 nM | 190 nM | – | – | 150 nM |
| CCUAUGCAGUCGGCCGCCACUGAGUCCUCAAUAAUAAAUUAUUAUACAUGAGGAUCACCCAUGUACAGGACCGGGACUGUAUAGG [Ex Tryptophan B 14] | 89 nM | 244 nM | 237 nM | 122 nM | 214 nM |
| AAAGAUCGGAAACGAUCGGCGGCUUGGGCGCGAGGACCGGUACGGCCGCCACUCGGGAAACAUGAGGAUCACCCAUGUUGCUAGC [ETA NP+V+V2 #15] | 12.3 nM | 18.4 nM | 16.8 nM | – | – |
| CGCGCGACAUGAGGAUCACCCAUGUUCCCUCGAGGACCGGUACGGCCGCCACUCGAGGACAUGAGCAUCAGCCAUGUACCGGUCA [Default title] | 28.8 nM | 54.6 nM | 66.2 nM | – | – |
| GCCUCCAGCCGAAGGAGCGCUAGAAGGUGACAUGAGGAUCACCCAUGUGUGUGAUGUGGCUAGCAGGUAGGUCGCGGAGGAGGCA [Exclusion - Arginine B (Freestyle 22)] | 53.7 nM | 105 nM | 74.1 nM | 109 nM | 74.8 nM |
| UCGUGUGUUUCGGAUACCAGUGUGGUCGAUACAUGAGGAUCACCCAUGUUAGAGGAGGUACACCCUUGGCAGCCGGCUGUUGCGG [kdtmullin] | 59.9 nM | 88.5 nM | – | – | 79.5 nM |
| CCCAGUUAGAUCAAAGGAAUUAUACUCGAAGGAGCGUCAUAGUAGGCAGGUAGGUCGCGAGACAUGAGGAUCACCCAUGUAGAGA [azqmullin] | 30.3 nM | 51.2 nM | 41 nM | 37.9 nM | 37.8 nM |
| AGUGUUAUAACUGAUACCAGACCUUUGCUUAUACAUGAGGAUCACCCAUGUAAAAUGGCGGUCCCUUGGCAGCAGAGAAUACACA [#08 Same State - Theophylline B] | 30.2 nM | 32.9 nM | – | – | 36.3 nM |
| UCGGGUUUGCGAAGGAGCGGGUAUGUUUUCUAGUGGAUCCUAACAUGAGGAUCACCCAUGUCCCAGGUAGGUCGCGCGGGUUUGG [12.W] | 183 nM | 291 nM | 168 nM | 102 nM | 100 nM |
| UGAUUGAACGGAAGGAGCGUGUAAGAACAAGAACAUGAGGAUCACCCAUGUAUUAAUUUAACACAGGUAGGUCGCCGAGAGAUUG [11.D] | 16 nM | 15.2 nM | 14 nM | 14.6 nM | 12 nM |
| UACAUGAGGAUCACCCAUGUAUGAAUAGAUACCAGAUAAAAUAAGGUCCCUUGGCAGCUAGUGAAUCGAGGGUGGGUAUCAUGAU [#12 Exclusion-TheophyllineA] | 9.47 nM | 12.7 nM | – | – | 9.93 nM |
| GCUCGUUGCAUGGAUACCAGUUGAUAGGCCGCCUCCGGAUACAUGAGGAUCACCCAUGUCAACCCUUGGCAGCCACCCAAUAGGG [theeternabot_exclusion_MS2_Theo_B_27] | 10.4 nM | 13.7 nM | – | – | 10.6 nM |
| UAUCGUCAGACGGCCGCCACUAGUACAUGAGGAUCACCCAUGUAGGUCCUAGAUUCCUCAUGAUCUAGGACCGGGUCUGACGAAU [(Trp1)-(Ms2)-(T)'-(M)'-(Trp2)_Design16] | 21.4 nM | 61.5 nM | 52.9 nM | – | – |
| UGUAUGUGAUCUGAUACCAGUCCAACUGGUAAAACACGAGGAUCACCCGUGUAAAAUUGGGACCCUUGGCAGCAGAUCGCAUACU | 70 nM | 51.9 nM | 12.6 nM | 87.5 nM | 87.9 nM |
| ACAAGUCCUCAUGAUACCAGCGAUGAGACAUAGUCUCAACAUGAGGAUCACCCAUGUAUUCGCCCUUGGCAGCAUACGGUUUUUG [Arleer] | 85.1 nM | 373 nM | – | – | 517 nM |
| AGUACAUGAGGAUCACCCAUGUAUCGGUACCGAGGACCGGUACGGCCGCCACUCGCAGGACAUGAGGAUCACCCAUGUGCAGCCG [SSTA DOUBLE!!! :-D #10] | 19.2 nM | 40.9 nM | 43.8 nM | 36.8 nM | 35 nM |
| AAUGUAUGGCACAUGAGGAUCACCCAUGUGCGAGGACCGGUACGGCCGCCACUCGGUCAAGGGAUCUUACCUCUAUACAUUAAUG [XTryp A #22] | 10.6 nM | 14.7 nM | 11.9 nM | – | – |
| UAUCGUCAGACGGCCGCCACUAGAACAUGAGGAUCACCCAUGUACGGCCGCCCGGUAUGGGUGUCUAGGACCGGGUCUGACGAAU [(Trp1)-(Ms2)-(T)'-(M)'-(Trp2)_Design21] | 22.9 nM | 37.8 nM | 39.8 nM | – | – |
| UCUUUCUAUGUAGAUACCAGCAUGUUAUCUUUCUUUUGACAUGAGGAUCACCCAUGUAAAUGCCCUUGGCAGCUACAUUUUCUUU [SSTHB #3] | 21 nM | 20.9 nM | – | – | 19.7 nM |
| UGGCAAGAGGGAAGGAGCGUCAGCUGAGUCACAUGAGGAUCACCCAUGUCGCACAUAGUGUGACAGGUAGGUCGCCCUCUACCCU [Rearian] | 67.9 nM | 209 nM | 217 nM | 222 nM | 148 nM |
| GAGUCCGCGGCGGCCGCCACUCGCGGCGCCACAUGGCGCCGGGACAUGAGGAUCACCCAUGUCCCGAGGACCGGGCCGAUCCUCA [Same State Typrtophan B GF4] | 16.6 nM | 35.6 nM | 33.9 nM | 18.1 nM | 14.5 nM |
| UAUAUAGAAGGAAGUCAUAUAGUUGCAGAAGGAGCGUAGGAAACUACAGGUAGGUCGCUGAGGUACAUGAGGAUCACCCAUGUAG [SSArg A #16 Slice of Pi] | 31.1 nM | 41 nM | 29.7 nM | 23.6 nM | 27.2 nM |
| ACGUAAUGCAGAAGGAGCGUCAUUUUAAAACAUGAGGAUCACCCAUGUAAUAUUUUUGUGUGACAGGUAGGUCGCUGAAGUACGA [JR_SSArginiB_Sub007] | 13.9 nM | 17.7 nM | 14.4 nM | 13.4 nM | 11.8 nM |
| GCUAGGUCUACGGCCGCCACUAGACGUGGGUAAGACAUGAGGAUCACCCAUGUACUACAGGCGAAUAGGACCGGGUAGACCUAGC [SSTB NP+V+V2 #12 Same Structure] | 58.2 nM | 55 nM | 46.1 nM | 36.4 nM | 15.1 nM |
| GGGUAUGAUCCGGAUACCAGCGAACAUGAGGAUCACCCAUGUGACCUAAGAUAGGCUCUACGCCCUUGGCAGCCGCGAUCGCAGA [Same State Theophylline B GF9] | 20.4 nM | 23.2 nM | 13.3 nM | 22.3 nM | 24.7 nM |
| GAGCUCGUGGACUGGCGUGCUCCGCUCCGUCGAGGACCGGUACGGCCGCCACUCGACAUGAGGAUCACCCAUGUGCGAGCUCGCU [#1 Exclusion - Tryptophan A Attempt #22 (HarryS)] | 11.4 nM | 113 nM | 117 nM | 46.2 nM | 21.4 nM |

Reference: the supplement of paper PMC9170038
